The values below come from patent publication US20230056404A1 (priority 2019, published 2023).

One assay relates to Sf9 cells. Nature of the assay: DRD1-GFP expression, localization and toxicity in Sf9 cells. Conditions: Sf9, 72 h.
The target of another assay is T1, DRD1 (Homo sapiens, UniProt P21728).
T1 construct: expressed in transfected cells; host or cells: HEK293
Kind of assay: DRD1-Strep functional activity, cAMP-Glo assay. The format is cell-based. The following applies: HEK293 expressing DRD1-Strep. The method, then: In addition to the illustration of a correctly translocated GPCR such as DRD1, activity tests were performed using a DRD1-Strep fusion. The smaller strep-tag ensures that the interaction with the cytosolic located G-protein is intact, and a functional assay can be performed. Upon binding of dopamine, DRD1 releases the heterotrimeric G-protein to its Gα subunit and its Gβγ complex. In the resting state, Ga binds GDP but upon activation exchanges GTP for GDP. The Gα-GTP complex interacts with adenylate cyclase (AC), resulting in activation of AC activity and consequently, increasing cAMP levels. Changes in intracellular cAMP levels can be measured by standard cAMP assays. The academic and industry standard (EG5) was compared to the same target protein in co-expression with the L-protein of ECMV.
DRD1-Strep fusions were expressed in HEK293 cells. […] Protein was expressed for 48 h and DRD1 activity was analyzed using the cAMP-Glo™ assay (Promega) according to manufacturer's instructions. After 48 h, cells were washed with sterile PBS pH 7.2 and cells were incubated for 2 h with 20 μl of a 1 mM dopamine substrate solution (+dopamine; ON) or PBS pH 7.2 (−dopamine; OFF) at 37° C. […] Luminescence was measured using a plate reader (BioTek Synergy™ LX) and data were analyzed using standard analysis programs.

In assay [1] the test system is HEK293 cells. The format is cell-based, human.
Assay [2] is described as follows: Active C1-Inhibitor, MicroVue C1-Inhibitor Plus EIA. The following applies: presence vs absence of the enhancer protein, protein concentration normalized. The format is biochemical. The protocol:
(§1) C1-Inh-Myc-Flag fusions were expressed in HEK293 cells. HEK293 cells were seeded at 1.75×10^6/ml cells in 100 ml shaking flask and incubated at 37° C., 5% CO2 and 120 rpm overnight before transiently transfecting with a vector encoding C1-Inh (OriGene; CAT #: RC203767) either alone, or in combination with EG11 by transfection of suspension cells using methods known in the art and/or disclosed herein. Supernatant containing the expressed recombinant C1-Inh protein was harvested after 72 h and supernatant was cleared by centrifugation followed by filtration ([…], nitrocellulose). To purify C1-Inh, Anti-Flag resin (ANTI-FLAG M2 Affinity Gel, Millipore Sigma) was equilibrated with 20 mM Tris pH 7.5, 50 mM NaCl prior to adding to the supernatant. Supernatant was incubated with the resin for 2 h at 4° C. with shaking. Resin was settled and washed with 5 CV 20 mM Tris pH 7.5, 50 mM NaCl and protein was eluted with 4 CV 20 mM Tris pH 7.5, 50 mM NaCl, 0.2 mg/ml 3× Flag Peptide. Purification was analyzed by SDS-PAGE (SurePAGE, Bis-Tris, GenScript) and protein containing fractions were pooled. Protein concentration was analyzed by BCA Assay (ThermoFisher) according to manufactures instructions and normalized C1-Inh was tested for activity using Immunoassay (MicroVue C1-Inhibitor Plus EIA, Quidel) following manufactures instructions.

For assay [3], the system named is HEK293 cells. Nature of the assay: C1-Inhibitor secretion and purification, total amount produced. The format is cell-based, human. Conditions: presence vs absence of the enhancer protein (L protein from EMCV, EG11), HEK293, 72 h. The method, then: as §1
The subject of the next assay is CHO-K1 cells. Nature of the assay: DRD1-GFP expression and membrane localization in CHO-K1 cells. Conditions: CHO-K1, 48 h.

T1 sequence (P21728 with tags, fused parts or gaps): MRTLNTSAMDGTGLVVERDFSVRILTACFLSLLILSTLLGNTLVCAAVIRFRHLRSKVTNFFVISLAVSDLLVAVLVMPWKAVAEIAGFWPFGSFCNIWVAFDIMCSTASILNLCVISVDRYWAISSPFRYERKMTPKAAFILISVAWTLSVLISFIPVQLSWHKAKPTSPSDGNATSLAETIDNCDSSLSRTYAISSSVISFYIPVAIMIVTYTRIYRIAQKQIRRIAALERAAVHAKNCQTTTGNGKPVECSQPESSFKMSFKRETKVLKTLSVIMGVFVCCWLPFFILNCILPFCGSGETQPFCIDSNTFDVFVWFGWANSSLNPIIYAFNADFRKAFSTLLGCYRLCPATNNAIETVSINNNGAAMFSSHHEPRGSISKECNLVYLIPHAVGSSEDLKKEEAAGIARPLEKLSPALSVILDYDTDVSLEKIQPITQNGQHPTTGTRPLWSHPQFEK
Description for CHO-K1 cells: DRD1-GFP fusions proteins were expressed in CHO-K1 cells. CHO-K1 cells were seeded at 0.05×10^6 cells/well in a 24 well plate and incubated at 37° C. and 5% CO2 overnight before transiently transfecting with either EG10 or EG19 using Lipofectamine 3000 (Thermofisher) according to manufactures instructions. DRD1-GFP expression was monitored after 48 h using fluorescence microscopy. Images were taken and analyzed by an Echo Revolve microscopy system.
Description for Sf9 cells: DRD1-GFP fusions were expressed in Sf9 cells. Sf9 cells were seeded at 0.4×10^6 cells/well in a 6 well plate and incubated for 15 min at RT before transiently transfecting with either EG10 or EG8 using Cellfectin Reagent II (Thermofisher) according to manufactures instruction. DRD1-GFP expression was monitored after 72 h using fluorescence microscopy. Images were taken and analyzed by an Echo Revolve microscopy system.

On to “Leader protein of ECMV: Leader protein of Encephalomyocarditis virus (EMCV), SEQ ID NO: 2, enhancer protein”, for which the “DRD1-GFP translocation and localization” value in the assay with Sf9 cells was “improved expression and localization of the membrane protein”. Besides, in the assay with DRD1 (1 mM dopamine 2 h), the “activating signal, difference between OFF (-dopamine) and ON (+dopamine) luminescence” value is “strong activating signal”. For the same molecule, the “leaky activation, OFF signal compared to non-transfected cells” value with DRD1 (absence of dopamine) is given as “greatly reduced”. In the assay with HEK293 cells [1], the “DRD1-GFP membrane association, enhancer on a separate vector” value is “ensures correct membrane association” and the “DRD1-GFP translocation into the outer membrane / inclusion bodies” value is “sufficient to ensure a correct membrane incorporation of DRD1-GFP”.

B1: C1-Inhibitor: secreted protease inhibitor of the serpin superfamily, expressed as C1-Inh-myc-flag fusion (protein, UniProt P05155 23-500, looked up)
Plasma protease C1 inhibitor: NPNATSSSSQDPESLQDRGEGKVATTVISKMLFVEPILEVSSLPTTNSTTNSATKITANTTDEPTTQPTTEPTTQPTIQPTQPTTQLPTDSPTQPTTGSFCPGPVTLCSDLESHSTEAVLGDALVDFSLKLYHAFSAMKKVETNMAFSPFSIASLLTQVLLGAGENTKTNLESILSYPKDFTCVHQALKGFTTKGVTSVSQIFHSPDLAIRDTFVNASRTLYSSSPRVLSNNSDANLELINTWVAKNTNNKISRLLDSLPSDTRLVLLNAIYLSAKWKTTFDPKKTRMEPFHFKNSVIKVPMMNSKKYPVAHFIDQTLKAKVGQLQLSHNLSLVILVPQNLKHRLEDMEQALSPSVFKAIMEKLEMSKFQPTLLTLPRIKVTTSQDMLSIMEKLEFFDFSYDLNLCGLTEDPDLQVSAMQHQTVLELTETGVEAAAASAISVARTLLVFEVQQPFLFVLWDQQHKFPVFMGRVYDPRA
modifications: myc-flag tag
On to B1, for which the “increase of amount of active C1-Inhibitor” value in assay [2] is on record as > 10%. For the same molecule, the “increase of total amount of produced C1-Inhibitor” value with HEK293 cells [3] is on record as > 30%.

B2: Leader protein of Theiler's virus: Leader protein of Theiler's virus, SEQ ID NO: 1, enhancer protein (protein)
chain: MACKHGYPLMCPLCTALDKTSDGLFTLLFDNEWYPTDLLTVDLEDEVFYPDDPHMEWTDLPLIQDIEMEPQ
modifications: Cardiovirus Theiler's-like cardiovirus
On to B2, for which the “DRD1-GFP translocation into the outer membrane / inclusion bodies” value with HEK293 cells [1] is on record as “sufficient to ensure a correct membrane incorporation of DRD1-GFP”. Further, the “DRD1-GFP translocation and localization” value in the assay on CHO-K1 cells was “improved expression and localization of the membrane protein”.
